Results taken from PMC8158962, “Modulation of fungal virulence through CRZ1 regulated F-BAR-dependent actin remodeling and endocytosis in chickpea infecting phytopathogen Ascochyta rabiei”.

Molecular target: T1, His-ArCRZ1 (Ascochyta rabiei, UniProt A0A163H1V7 1-755)
T1 sequence: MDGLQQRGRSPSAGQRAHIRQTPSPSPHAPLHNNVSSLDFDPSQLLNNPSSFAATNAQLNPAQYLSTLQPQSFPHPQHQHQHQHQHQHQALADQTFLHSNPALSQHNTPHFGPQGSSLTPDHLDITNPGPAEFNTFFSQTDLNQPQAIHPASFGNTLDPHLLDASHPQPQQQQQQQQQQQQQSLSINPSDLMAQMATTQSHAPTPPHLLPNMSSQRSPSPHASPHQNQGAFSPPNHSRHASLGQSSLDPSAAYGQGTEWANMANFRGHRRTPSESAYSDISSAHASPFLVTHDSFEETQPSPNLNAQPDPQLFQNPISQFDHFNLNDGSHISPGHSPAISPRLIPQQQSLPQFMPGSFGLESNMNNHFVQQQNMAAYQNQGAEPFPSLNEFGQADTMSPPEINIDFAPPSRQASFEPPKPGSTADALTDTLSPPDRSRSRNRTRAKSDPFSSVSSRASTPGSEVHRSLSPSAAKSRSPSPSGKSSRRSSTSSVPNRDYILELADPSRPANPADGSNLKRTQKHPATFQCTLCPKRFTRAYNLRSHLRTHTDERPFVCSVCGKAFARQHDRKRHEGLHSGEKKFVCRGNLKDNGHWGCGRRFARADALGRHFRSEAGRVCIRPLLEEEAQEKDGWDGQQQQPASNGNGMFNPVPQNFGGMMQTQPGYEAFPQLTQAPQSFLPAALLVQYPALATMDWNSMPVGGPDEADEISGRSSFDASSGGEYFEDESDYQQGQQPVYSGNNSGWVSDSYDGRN
Test: EMSA; 15 mM HEPES pH 7.6, 0.2 mM MgCl2, 35 mM KCl, 1 mM DTT, 1% glycerol, 1 mg poly(dI-dC) (so in the source), 10 ng labelled DNA, 30 uL, 25 min, room temperature; 6% native PAGE
Conditions: protein: recombinant; tags: His (pET28a(+)); label: 32P end label; blunt

B1: WT CDRE (GRF/GRR), 58 bp (dsDNA)
DNA 1: CTCCAGCCATCGAGCCCCACCACCAATTGGGCCGCCAGTGAGAGCCCCAAGGCCGTCC
DNA 2: GGACGGCCTTGGGGCTCTCACTGGCGGCCCAATTGGTGGTGGGGCTCGATGGCTGGAG
B1: binds.
